Assay [1] concerns the target GluK2-ABD (Cys-light homomeric GluK2 receptor with a cysteine at site 479) (Rattus norvegicus) (UniProt P42260).
The target of assay [2] is GluK2-ATD (Cys-light homomeric GluK2 receptor with a cysteine at site 266) (Rattus norvegicus) (UniProt P42260).

As for Concanavalin A (natural protein), the smFRET efficiency between subunits at the ABD dimer interface (site 479) with 40 uM Con-A and 1 mM glutamate, Na+; major peak, shift of the population to higher FRET states against no Con-A (FRET efficiency) in assay [1] was 0.94. In assay [2], this substance returned a smFRET efficiency across the dimer-dimer interface at the ATD (site 266) with 40 uM Con-A and 1 mM glutamate; primary population, against 0.83 reported earlier without Con-A (FRET efficiency) of 0.95.

The values are drawn from paper PMC8401665.
